The values below come from article PMC4184034.

The data set deals with dCas9 (SpyCas9 D10A/H840A) (Streptococcus pyogenes). Description: DNA binding assay. Conditions: not given in the material (Methods are in the supplement, not held).

On to crRNA:tracrRNA + 55-bp target dsDNA, for which the Kd (as a rule, the free concentration of one partner at which half of the binding sites on the other are occupied at equilibrium, for simple one-to-one binding) stood at 4 nM.
